± gives the standard error. For part of these data: This sample holds only a part of the variants without activity.
B1: glmS ribozyme (parent)
chain: AUAAAAGCGCCAGAACUACAGAAAUGUAGUUGACGAGGAGGAGGUUUAUCGAAUUUUCGGCGGAUGCCUCCAAA

Experiments:
Conditions in all cases: with glucosamine-6-phosphate
glucosamine-6-phosphate [1] = variants of: B1; test: kcat; higher = faster cleavage; RNA array
Outline: (§1)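 On sequenced MiSeq chips, barcoded ribozyme variants were made in situ by E. coli RNA polymerase and followed at 37 °C through a hybridised Cy3 probe. Glucosamine-6-phosphate was flowed in at 40 μM to 10 mM in HEPES/KCl/Mg(OAc)2 buffer. Exponential fits to normalised per-tile medians gave kobs, and weighted Michaelis–Menten fits gave kcat and KM.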

glucosamine-6-phosphate [2] = variants of: B1; test: KM; higher = weaker cofactor use; RNA array
Outline: as §1

glucosamine-6-phosphate [3] = variants of: B1; test: self-cleavage kobs at 40 uM GlcN6P; higher = faster cleavage; RNA array
Outline: as §1

glucosamine-6-phosphate [4] = variants of: B1; test: self-cleavage kobs at 160 uM GlcN6P; higher = faster cleavage; RNA array
Outline: as §1

glucosamine-6-phosphate [5] = variants of: B1; test: self-cleavage kobs at 640 uM GlcN6P; higher = faster cleavage; RNA array
Outline: as §1

glucosamine-6-phosphate [6] = variants of: B1; test: self-cleavage kobs at 2500 uM GlcN6P; higher = faster cleavage; RNA array
Outline: as §1

glucosamine-6-phosphate [7] = variants of: B1; test: self-cleavage kobs at 10000 uM GlcN6P; higher = faster cleavage; RNA array
Outline: as §1

Row | Variant | kcat (glucosamine-6-phosphate [1]) | KM (glucosamine-6-phosphate [2]) | self-cleavage kobs at 40 uM GlcN6P (glucosamine-6-phosphate [3]) | self-cleavage kobs at 160 uM GlcN6P (glucosamine-6-phosphate [4]) | self-cleavage kobs at 640 uM GlcN6P (glucosamine-6-phosphate [5]) | self-cleavage kobs at 2500 uM GlcN6P (glucosamine-6-phosphate [6]) | self-cleavage kobs at 10000 uM GlcN6P (glucosamine-6-phosphate [7])
1 | AUAAUAGCGCCAGAACUACAGAAAUGUAGUUGACGAGGAGGAGGUUUAUCGAAUUUUCGGCGGAUGCCUCCAAA [A5U] | 0.0156 ± 0.0027 s⁻¹ | 661 ± 170 µM | 0.000961 ± 0.00015 s⁻¹ | 0.00247 ± 0.00049 s⁻¹ | 0.00869 ± 0.0012 s⁻¹ | 0.0143 ± 0.0042 s⁻¹ | 0.0129 ± 0.003 s⁻¹
2 | AUAAACGCGCCAGAACUACAGAAAUGUAGUUGACGAGGAGGAGGUUUAUCGAAUUUUCGGCGGAUGCCUCGAAA [A6C C71G] | 1.2e-05 ± 1.5e-06 s⁻¹ | – | < 1e-05 s⁻¹ | – | – | – | –
3 | AUAAACGCGCCAGAACUACAGAAAUGUAGUUGACGAGGAGGAGGUUUAUCGAAUUUUCGGCGGAUGCCUCAAAA [A6C C71A] | 2.27e-05 ± 4.2e-07 s⁻¹ | 205 ± 38 µM | – | – | – | – | 2.19e-05 ± 1.1e-05 s⁻¹
4 | AUAAACGCGCCAGAACUACAGAAAUGUAGAUGACGAGGAGGAGGUUUAUCGAAUUUUCGGCGGAUGCCUCCAAA [A6C U30A] | < 1e-05 s⁻¹ | – | < 1e-05 s⁻¹ | < 1e-05 s⁻¹ | – | – | –
5 | AUAAACGCGCCAAAACUACAGAAAUGUAGUUGACGUGGAGGAGGUUUAUCGAAUUGUCGGCGGAUGCCUCCAAA [A6C G13A A36U U56G] | < 1e-05 s⁻¹ | – | < 1e-05 s⁻¹ | – | – | < 1e-05 s⁻¹ | –
6 | UGGAUAGCGCCAGAACUACAGAAAUGUAGUUGACGAGGAGGAGGUUUAUCGAAUUUUCGGCGGAUGCCUCCAAA [A1U U2G A3G A5U] | 0.0105 ± 0.0015 s⁻¹ | 1320 ± 260 µM | 0.000338 ± 5.7e-05 s⁻¹ | 0.00116 ± 0.00022 s⁻¹ | 0.00274 ± 0.00078 s⁻¹ | 0.006 ± 0.0016 s⁻¹ | 0.0103 ± 0.0017 s⁻¹
7 | AUAAACGCGCCAGAACUACAGAAAUGUAGUUGACGAGGGGGAGGUUUAUCGAAUUUUCGGCGGAUGCCUCCAAA [A6C A39G] | 6.38e-05 ± 7.8e-07 s⁻¹ | 439 ± 33 µM | – | – | – | 5.42e-05 ± 1.9e-05 s⁻¹ | 6.11e-05 ± 1.4e-05 s⁻¹
8 | AUAAACGCGUCAGAACUACAGAAAUGUAGUUGACGAGGAGGAGGUUUAUCGAAUUUUCGGCGGAUGGCACCAAA [A6C C10U C67G U69A] | 2.09e-05 ± 8.6e-06 s⁻¹ | – | – | – | – | – | –
9 | AUAAACGCGCCAGAACUACAGAAAUGUAGUUGACGAGGAGGAGGUUUAUCGAAUUUUCGGCGGAUGCCUGCAAA [A6C C70G] | 1.09e-05 ± 2.1e-06 s⁻¹ | – | – | – | – | – | –
10 | AUAAACGCGCCAGAACUACAGAAAUGUAGUUGACGAGGAGGAGGUUUAUCGAUUUUUCGGCGGAUGCCUCCAAA [A6C A53U] | 8.96e-05 ± 2.4e-06 s⁻¹ | 3600 ± 220 µM | – | – | – | 3.64e-05 ± 7.4e-06 s⁻¹ | 6.61e-05 ± 1.1e-05 s⁻¹
11 | AUAAACGCGCCAGGACUACAGAAAUGUAGUUGACGAGGAGGAGGUUUAUCGAAUUUUCGGCGGAUGCCUCCAAA [A6C A14G] | 0.000252 ± 8.5e-06 s⁻¹ | 1220 ± 210 µM | – | – | – | 0.000164 ± 3.1e-05 s⁻¹ | 0.000226 ± 2.3e-05 s⁻¹
